Experimental data: patent publication US8461305B2, “L-fucose α1→6 specific lectin” (J-Oil Mills, Inc., priority 2008, dated 2013)

Experiment: frontal affinity chromatography (FAC), association constant to PA sugar chains without L-fucose
Format: binding
Details: 25 degrees C.
In short: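 Lectin coupled via primary amines to NHS-activated sepharose in a miniature column, run in TBS (pH 7.4) at 0.125 ml/min and 25 degrees C. PA sugar chains (3.75 nM or 7.5 nM) applied in excess, with elution monitored by fluorescence (ex 310/em 380 nm). Ka calculated from front-end delay (V−Vo) versus PA rhamnose and effective ligand amount (Bt).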

Measured: association constant Ka

B1: Aleuria aurantia lectin (protein)
chain: PTEFLYTSKIAAISWAATGGRQQRVYFQDLNGKIREAQRGGDNPWTGGSSQNVIGEAKLFSPLAAVTWKSAQGIQIRVYCVNKDNILSEFVYDGSKWITGQLGSVGVKVGSNSKLAALQWGGSESAPPNIRVYYQKSNGSGSSIHEYVWSGKWTAGASFGSTVPGTGIGATAIGPGRLRIYYQATDNKIREHCWDSNSWYVGGFSASASAGVSIAAISWGSTPNIRVYWQKGREELYEAAYGGSWNTPGQIKDASRPTPSLPDTFIAANSSGNIDISVFFQASGVSLQQWQWISGKGWSIGAVVPTGTPAGW
<1000 M⁻¹: Sugar chain No. 001 | Sugar chain No. 002 | Sugar chain No. 003 | Sugar chain No. 004 | Sugar chain No. 005 | Sugar chain No. 006 | Sugar chain No. 007 | Sugar chain No. 008 | Sugar chain No. 009 | Sugar chain No. 010 | Sugar chain No. 011 | Sugar chain No. 012 | Sugar chain No. 013 | Sugar chain No. 014 | Sugar chain No. 101 | Sugar chain No. 103 | Sugar chain No. 104 | Sugar chain No. 105 | Sugar chain No. 107 | Sugar chain No. 108 | Sugar chain No. 301 | Sugar chain No. 304 | Sugar chain No. 305 | Sugar chain No. 307 | Sugar chain No. 308 | Sugar chain No. 313 | Sugar chain No. 314 | Sugar chain No. 323 | Sugar chain No. 501 | Sugar chain No. 502 | Sugar chain No. 503 | Sugar chain No. 504 | Sugar chain No. 701 | Sugar chain No. 702 | Sugar chain No. 703 | Sugar chain No. 704 | Sugar chain No. 705 | Sugar chain No. 706 | Sugar chain No. 707 | Sugar chain No. 708 | Sugar chain No. 709 | Sugar chain No. 710 | Sugar chain No. 711 | Sugar chain No. 712 | Sugar chain No. 713 | Sugar chain No. 715 | Sugar chain No. 716 | Sugar chain No. 717 | Sugar chain No. 724 | Sugar chain No. 725 | Sugar chain No. 728 (as listed in Table 7) | Sugar chain No. 732 | Sugar chain No. 733 | Sugar chain No. 734 | Sugar chain No. 735 | Sugar chain No. 736 | Sugar chain No. 737 | Sugar chain No. 738 | Sugar chain No. 901 | Sugar chain No. 902 | Sugar chain No. 903 | Sugar chain No. 905 | Sugar chain No. 906 | Sugar chain No. 907
